The source of these data is article PMC8617079.

Test [1] addresses 26S proteasome (mouse (endogenous in striatum and hippocampus tissue)) (UniProt P62196). Nature of the test: co-IP.
For test [2] the target is unchanged. The experiment in a line: co-IP. The source holds these as a separate data set.

Read-outs that look alike come from different tables or passages of the source.

UniProt P62196, sequence (P62196 whole entry, looked up): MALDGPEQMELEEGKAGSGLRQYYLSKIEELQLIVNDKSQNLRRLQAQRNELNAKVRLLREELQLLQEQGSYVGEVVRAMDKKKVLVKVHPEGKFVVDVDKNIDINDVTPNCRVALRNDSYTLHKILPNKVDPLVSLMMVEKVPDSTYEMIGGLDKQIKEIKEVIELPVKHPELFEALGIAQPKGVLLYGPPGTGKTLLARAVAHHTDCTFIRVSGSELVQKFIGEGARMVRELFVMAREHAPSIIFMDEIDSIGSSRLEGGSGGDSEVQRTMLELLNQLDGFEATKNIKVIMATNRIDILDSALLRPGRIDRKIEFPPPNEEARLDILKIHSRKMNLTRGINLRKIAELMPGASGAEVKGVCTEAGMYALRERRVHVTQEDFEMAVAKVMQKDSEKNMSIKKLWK

“gamma-enolase (ENO2) (from UniProt P17183 1-434) (natural protein)”: the pixel total of the Eno2 band in test [1] is 9430 pixels; in test [2] it was 12400 pixels.
